From US20110118131A1 (published 2011)
Where a chain is given by its changes, count along the chain named. Names may count otherwise.

B1: XPA23 heavy chain G103A (Fab, V domains shown)
VH: EVQLLESGGGLVQPGGSLRLSCAASGFTFSKYFMFWVRQAPGKGLEWVSVISPSGGMTRYADSVKGRFTISRDNSKNTLYLQMNSLRAEDTAVYYCARVGYGANSDYWGQGTLVTVSS
VL: DIQMTQSPSSVSASVGDRLTIICRASQDINRWLAWYQQTPGNAPKLLIHSATSLQSGVPSRFSGSGSGTDFTLTINSLQPEDFATYYCQQADSFPLTFGGGTKVEIK
notes: Fab, periplasmic extract; also called C5A G103A
B2: XPA23 heavy chain G103V (Fab, V domains shown)
VH: B1 VH with A103V
VL: B1 VL
notes: Fab, periplasmic extract; also called C5A G103V
B3: XPA23 heavy chain I51A (Fab, V domains shown)
VH: B1 VH with I51A, A103G
VL: B1 VL
notes: Fab, periplasmic extract; also called C5A I51A
B4: XPA23 heavy chain I51G (Fab, V domains shown)
VH: B1 VH with I51G, A103G
VL: B1 VL
notes: Fab, periplasmic extract; also called C5A I51G
B5: XPA23 heavy chain I51L (Fab, V domains shown)
VH: B1 VH with I51L, A103G
VL: B1 VL
notes: Fab, periplasmic extract; also called C5A I51L
B6: XPA23 heavy chain I51T (Fab, V domains shown)
VH: B1 VH with I51T, A103G
VL: B1 VL
notes: Fab, periplasmic extract; also called C5A I51T
B7: XPA23 heavy chain I51V (Fab, V domains shown)
VH: B1 VH with I51V, A103G
VL: B1 VL
notes: Fab, periplasmic extract; also called C5A I51V
B8: XPA23 heavy chain K31I (Fab, V domains shown)
VH: B1 VH with K31I, A103G
VL: B1 VL
notes: Fab, periplasmic extract; also called C5A K31I
B9: XPA23 heavy chain K31L (Fab, V domains shown)
VH: B1 VH with K31L, A103G
VL: B1 VL
notes: Fab, periplasmic extract; also called C5A K31L
B10: XPA23 heavy chain K31V (Fab, V domains shown)
VH: B1 VH with K31V, A103G
VL: B1 VL
notes: Fab, periplasmic extract; also called C5A K31V
B11: XPA23 heavy chain M57A (Fab, V domains shown)
VH: B1 VH with M57A, A103G
VL: B1 VL
notes: Fab, periplasmic extract; also called C5A M57A
B12: XPA23 heavy chain M57I (Fab, V domains shown)
VH: B1 VH with M57I, A103G
VL: B1 VL
notes: Fab, periplasmic extract; also called C5A M57I
B13: XPA23 heavy chain M57L (Fab, V domains shown)
VH: B1 VH with M57L, A103G
VL: B1 VL
notes: Fab, periplasmic extract; also called C5A M57L
B14: XPA23 heavy chain M57T (Fab, V domains shown)
VH: B1 VH with M57T, A103G
VL: B1 VL
notes: Fab, periplasmic extract; also called C5A M57T
B15: XPA23 heavy chain M57V (Fab, V domains shown)
VH: B1 VH with M57V, A103G
VL: B1 VL
notes: Fab, periplasmic extract; also called C5A M57V
B16: XPA23 heavy chain N104A (Fab, V domains shown)
VH: B1 VH with A103G, N104A
VL: B1 VL
notes: Fab, periplasmic extract; also called C5A N104A
B17: XPA23 heavy chain N104G (Fab, V domains shown)
VH: B1 VH with A103G, N104G
VL: B1 VL
notes: Fab, periplasmic extract; also called C5A N104G

Target: T1, IL-1β (UniProt P01584 117-269)
T1 construct: Antigen of XPA23
Test: Biacore, Fab periplasmic extract

Row | Binder | fold difference in affinity against the original [fold]
1 | B1 | 0.03
2 | B2 | 2.56
3 | B3 | 1.04
4 | B4 | 0.94
5 | B5 | 0.79
6 | B6 | 0.86
7 | B7 | 0.99
8 | B8 | 0.74
9 | B9 | 1.08
10 | B10 | 0.81
11 | B11 | 0.03
12 | B12 | 0.03
13 | B13 | 0.06
14 | B14 | 0.06
15 | B15 | 0.03
16 | B16 | 1.61
17 | B17 | 1.21
